The target in assay [1] is recombinant mouse glucokinase (GK) isoform 1 (mouse) (UniProt P52792).
In assay [2] the target is T1, glucokinase (GK) (Mus musculus, UniProt P52792).
T1 sequence (P52792 1-465): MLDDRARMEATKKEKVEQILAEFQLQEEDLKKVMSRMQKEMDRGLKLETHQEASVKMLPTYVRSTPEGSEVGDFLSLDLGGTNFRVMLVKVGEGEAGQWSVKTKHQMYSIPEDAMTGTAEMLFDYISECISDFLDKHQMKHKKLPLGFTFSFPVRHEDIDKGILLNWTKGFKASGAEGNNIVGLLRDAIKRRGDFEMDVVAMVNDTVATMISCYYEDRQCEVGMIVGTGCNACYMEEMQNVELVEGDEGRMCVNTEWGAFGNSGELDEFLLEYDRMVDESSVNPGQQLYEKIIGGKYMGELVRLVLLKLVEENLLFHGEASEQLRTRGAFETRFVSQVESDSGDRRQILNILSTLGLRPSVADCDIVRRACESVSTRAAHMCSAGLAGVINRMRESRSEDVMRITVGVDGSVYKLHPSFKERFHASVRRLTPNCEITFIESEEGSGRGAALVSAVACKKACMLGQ
Kind of assay: Steady-state kinetics of recombinant wild-type mouse glucokinase. The class given is biochemical. As to conditions: vs vehicle.

These results are taken from paper PMC4084830 (Nature structural & molecular biology, 2013).

In the case of BAD SAHBA (S118D) (peptide), the GK Vmax (% of vehicle), G6PDH-coupled assay with 5 μM SAHB and 7.5 nM GK, 37 °C in assay [1] turned out to be 144 % veh. Regarding `CS(=O)(=O)c1ccc([C@@H](CC2CCCC2)C(=O)Nc2nccs2)cc1` [RO0281675], the “effect on GK kinetic profile (in words)” value in assay [2] (5 μM BAD SAHBs and/or 3 μM RO0281675) is on record as “no significant effect on the Hill coefficient”. For the same molecule, in assay [2] (5 μM BAD SAHB or 3 μM RO0281675), the “increase in Vmax” value was “approximately 40%”. In the case of BAD SAHBA (S118pS) (peptide), in assay [1], the GK Vmax (% of vehicle), G6PDH-coupled assay with 5 μM SAHB and 7.5 nM GK, 37 °C was found to be 129 % veh. As to BAD SAHBA (S118L) (peptide), in assay [1], the GK Vmax (% of vehicle), G6PDH-coupled assay with 5 μM SAHB and 7.5 nM GK, 37 °C worked out at 89.6 % veh.
